Laboratory results: the supplement of paper PMC10724198

Key:
[1] = tested on: Saccharomyces cerevisiae; assay: protein stability index of tFT-peptide fusion in wild type (PSI (0-1 scale)); higher = more stable (slower turnover); details: genetic background: wild type
Method: (§1)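 MPS profiling in S. cerevisiae of two library types built from selected 12-aa C-degron peptides (IN1, IN2, LN1, LN3, VN2, R1-R5, W1-W3, Atg1 and Rpa12 C-termini): saturation mutagenesis libraries and C-terminal +1 capping libraries (13 aa). Each peptide is fused to the C-terminus of a sfGFP-mCherry timer, after a GGGS linker. Cells are FACS-sorted into 8 mCherry/sfGFP bins and sequenced. PSI runs from 0 (unstable) to 1 (stable), measured once in wild type and in the das1Δ or doa10Δ background.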

[2] = tested on: Saccharomyces cerevisiae; assay: protein stability index of tFT-peptide fusion in deletion strain of DAS1 (PSI (0-1 scale)); higher = more stable (slower turnover)
Method: as §1
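Wherever protein stability index of tFT-peptide fusion in deletion strain of DAS1 is given: PSI is a weighted mean of each variant's read distribution over the sorted stability bins, computed only for variants having over 10 reads in total.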
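Wherever protein stability index of tFT-peptide fusion in wild type is given: PSI derived as read-weighted mean over the 8 sorting bins, only variants exceeding 10 total reads kept, mCherry placed adjacent to the peptide and sfGFP distal.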

Sequence | protein stability index [1] | protein stability index [2]
LVVYLSCVACIC | 0.0144 | 0.0309
LVVYLSCVACID | 0.0162 | 0.0175
LVVYLSCVACINI | 0.0206 | 0.0321
LVVYLSCVACINK | 0.0222 | 0.0356
LVVYLSCVACINT | 0.0205 | 0.0331
LVVYLSCVACINY | 0.0212 | 0.0337
LVVYLSCVACIQ | 0.0107 | 0.0327
LVVYLSCVACIS | 0.014 | 0.0369
LVVYLSCVACIV | 0.0146 | 0.0299
LVVYLSCVAKIN | 0.0143 | 0.0401
LVVYLSCVALIN | 0.0158 | 0.0501
LVVYLSCVHCIN | 0.0533 | 0.251
LVVYLSCVSCIN | 0.0143 | 0.0441
LVVYNSCVACIN | 0.245 | 0.406
LVVYQSCVACIN | 0.216 | 0.339
LVVYTSCVACIN | 0.0172 | 0.0606
PDKMNHLIKLLN | 0.111 | 0.614
PDKRNHLIKCLN | 0.169 | 0.634
PDKRNHLIKLEN | 0.611 | 0.603
PDKRNHLIKLLG | 0.238 | 0.614
PDKRNHLIKLLK | 0.758 | 0.611
PDKRNHLIKLLND | 0.638 | 0.664
PDKRNHLIKLLNP | 0.663 | 0.672
PDKRNHLIKVLN | 0.186 | 0.577
PDKRNHLIRLLN | 0.144 | 0.614

Sequence | protein stability index [1] | protein stability index [2]
PDKRNHLLKLLN | 0.157 | 0.6
PDKRRHLIKLLN | 0.115 | 0.605
PDLAASFWRVVG | 0.151 | 0.708
PDNRNHLIKLLN | 0.171 | 0.604
PDTRNHLIKLLN | 0.183 | 0.59
PGKRNHLIKLLN | 0.127 | 0.585
PHLAASFWRVVG | 0.148 | 0.698
PLIQPLPVQFLN | 0.0682 | 0.604
PSDAASFWRVVG | 0.187 | 0.702
PSLAAKFWRVVG | 0.149 | 0.681
PSLAASDWRVVG | 0.627 | 0.68
PSLAASFWCVVG | 0.47 | 0.687
PSLAASFWDVVG | 0.694 | 0.708
PSLAASFWRHVG | 0.181 | 0.704
PSLAASFWRKVG | 0.131 | 0.688
PSLAASFWRVVGI | 0.667 | 0.696
PSLAASFWRVVGS | 0.234 | 0.697
PSLAASPWRVVG | 0.519 | 0.683
PSLADSFWRVVG | 0.586 | 0.688
PSLAMSFWRVVG | 0.146 | 0.673
PSLHASFWRVVG | 0.157 | 0.684
PSLVASFWRVVG | 0.137 | 0.686
PSSAASFWRVVG | 0.143 | 0.696
QSMRWTFRYWVN | 0.047 | 0.691
